Patent publication US6699839B1, “Lantibiotic from Streptococcus mutans, method of production and use thereof” (Universite Laval, priority 1997, dated 2004)

Tests used:
[1] = test system: Micrococcus luteus ATCC 272; assay: Sensitivity titer on a lawn of the tested strain (control strain); type: cell-based; settings: Micrococcus luteus ATCC 272 (control); antibiotic resistance: None
Procedure: (§1) Trypticase Soy Agar (Difco Laboratories, Detroit, Mich.) plates enriched with 0.3% yeast extract were overlaid with 5 ml of melted TSAYE containing a standardized suspension (0.2 ml of an exponentially growing culture at an optical density of 0.1 at 600 nm) of Micrococcus luteus ATCC 272 (ATCC, Rockville, Md.). In order to assess the activity of mutacin samples, two-fold dilutions were prepared in 0.11% TFA (Sigma Chemical Co., St. Louis, Mo.) and 5 μl of each dilution deposited on top of the indicator plates. Mutacin activity was expressed in arbitrary units, which correspond to the reciprocal of the last dilution giving a clear inhibition zone against M. luteus after 24 h of incubation at 37° C. under aerobic conditions (Parrot et al., 1989, Can. J. Microbiol. 35:366-372).
(§2) The sensitivity of multi-drug resistant strains to mutacin B-Ny266 purified to homogeneity was assessed. In parallel the sensitivity of these strains to nisin was determined.

[2] = test system: Staphylococcus epidermidis 1656; assay: Sensitivity titer of multi-drug resistant staphylococci clinical isolates; type: cell-based; settings: resistant to AM-K-S-CF-E-P-Cl-TE
Procedure: as §1, §2

[3] = test system: Staphylococcus epidermidis 3176; assay: as above; type: cell-based; settings: resistant to AM-GM-K-CF-E-P-Cl
Procedure: as §1, §2

[4] = test system: Staphylococcus haemolyticus 2344; assay: as above; type: cell-based; settings: resistant to AM-K-S-CF-E-P-Cl-TE
Procedure: as §1, §2

Neisseria subflava = assay: Growth inhibition; type: cell-based
[5] = test system: Clostridium bifermentants; assay: Growth inhibition; type: cell-based
Bacillus cereus = assay: Growth inhibition; type: cell-based
[6] = test system: Flavobacterium capsulatum; assay: Growth inhibition; type: cell-based; settings: a Gram-negative strain
[7] = Heat stability of activity; type: physicochemical
[8] = Stability of activity to enzymes; type: physicochemical
[9] = Polarity calculation from RP-HPLC elution; type: physicochemical; settings: calculated from elution at 33.3% acetonitrile, RP-HPLC C18 (Snyder formula)
Procedure: The polarity was calculated from the percentage of acetonitrile at which the substance eluted according to the formula given by Snyder (Snyder, L. R., 1978, Chromatogr. Sci. 16:223-234).

## Mutacin B-Ny266: type A lantibiotic produced by Streptococcus mutans B-Ny266; F-K-A-W-U-F-A-Abu-P-G-A-A-K-O-G-A-F-N-U-Y-A-SADC
[1]
  titer (highest dilution producing an inhibitory zone on a lawn of the tested strain): 64
[2]
  titer (highest dilution producing an inhibitory zone on a lawn of the tested strain): 16
[3]
  titer (highest dilution producing an inhibitory zone on a lawn of the tested strain): 16
[4]
  titer (highest dilution producing an inhibitory zone on a lawn of the tested strain): 16
Neisseria subflava
  growth inhibition: inhibits the growth
[5]
  growth inhibition: inhibits the growth
Bacillus cereus
  growth inhibition: inhibits the growth
[6]
  growth inhibition: inhibit
[7]; 100° C. for 30 min
  resistance to temperature: resistant
[7]; 121° C. for 30 min
  activity after heat treatment: destroyed
[8]; alpha-chymotrypsin
  activity after enzyme treatment: destroyed
[8]; many enzymes
  resistance to enzymes: resistant
[8]; papain
  activity after enzyme treatment: destroyed
[8]; pronase E
  activity after enzyme treatment: destroyed
[8]; proteinase K
  activity after enzyme treatment: destroyed
[8]; trypsin
  activity after enzyme treatment: destroyed
[9]
  polarity: 8.067
